US20010043931A1, “Human respiratory syncytial virus” (Whitehead Institute for Biomedical Research, priority 1999, published 2001)

T1: HRSV-N51 peptide (residues 157-207 of HRSV F0) (human respiratory syncytial virus …)
T1 construct: Made by proteinase K trimming of the HRSV-N57/C45 complex
T1 peptide: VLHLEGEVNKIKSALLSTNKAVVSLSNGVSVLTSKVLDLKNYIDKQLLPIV

B1: HRSV-C39 peptide (residues 482-520 of HRSV F0) (peptide)
peptide: VFPSDEFDASISQVNEKINQSLAFIRKSDELLHNVNAGK
notes: Made by proteinase K trimming of the HRSV-N57/C45 complex

Key:
[1] = Thermal denaturation followed by circular dichroism (CD) spectroscopy; format: physicochemical; conditions: at 10 μM in PBS
Procedure: CD spectra were measured at protein concentration 10 μM in PBS buffer using an AVIV 62 DS spectrometer (Aviv Associates, Lakewood, N.J.), as described (Fass, D. & Kim, P. S., Curr. Biol., 5:1377-1383 (1995).

[2] = biological target: T1, HRSV-N51 peptide (residues 157-207 of …); experiment: complex left after proteinase K digestion of HRSV-N57/C45; CD thermal melt

Molecule	apparent Tm [1]	binding result [2]
HRSV-C45: C-terminal trypsin fragment of recRSV-1, residues 476-520 of HRSV F0 (SEQ ID NO.: 2) (NFYDPLVFPSDEFDASISQVNEKINQSLAFIRKSDELLHNVNAGK)	does not show a thermal unfolding transition	–
HRSV-N57: N-terminal trypsin fragment of recRSV-1, residues 153-209 of HRSV F0 (SEQ ID NO.: 1) (AVSKVLHLEGEVNKIKSALLSTNKAVVSLSNGVSVLTSKVLDLKNYIDKQLLPIVNK)	40-50 °C	–
B1	–	binds
